Test results taken from publication PMC2191632 (The Journal of Experimental Medicine, 1994).
Where no end group is shown, it is not given here.

B1: 0405BP3 (…), unlabeled (peptide)
peptide: GSTVFDNLPNPEIDGDYYGW
B2: … (peptide)
peptide: AAKAAKAGAA
B3: PKM2p99-117 (…), unlabeled (peptide)
peptide: SDPILYRPVAVALDTKGPE
B4: … with 10th N to A (peptide)
peptide: GSTVFDNLPAPE
B5: CD20p26-45 (…) (peptide)
peptide: GPKPLFRRMSSLVGPTQSFF
B6: … (peptide)
peptide: AALAAIASAA
B7: irrelevant peptide (…), unlabeled (peptide)
peptide: NELSGEAHKDALGKLY
B8: K-Ins beta p11-30 (…) (peptide)
peptide: KLVEALYLVCGERGFFYTPKT
B9: K-Ins alpha p12-21 (…) (peptide)
peptide: KSLYQLENYCN
B10: 0405BP2 (…) (peptide)
peptide: SPGTGAYYVLLN
B11: … (peptide)
peptide: AAFAAMASAA
B12: … (peptide)
peptide: AAYAALANAA
B13: … (peptide)
peptide: KAAYAAVAVAA
B14: 0405BP1 (…), unlabeled (peptide)
peptide: VPIQRAVYQNVVVNN
B15: KK-Ins alpha p8-17 (…) (peptide)
peptide: KKTSICSLYQLE
B16: K-Ins alpha p1-10 (…) (peptide)
peptide: KGIVEQCCTSI
B17: CD23p195-214 (…) (peptide)
peptide: EGQLVSIHSPEEQDFLTKHA

Columns and labels:
[1] = Solubility of polyalanine-based peptide; assay type: physicochemical; details: in words; lysine then inserted at NH2 terminus to increase solubility
[2] = target: HLA-DR4 (DRA-DRB1*0406 complex) (human (endogenous in KT13)); experiment: radioligand binding
DRB1*0406 complex = DRB1*0406 complex (Homo sapiens, UniProt P01903+P01911, A100R/A103E/A169T/F76Y/I96L/K127E/L162R/M171V/N62H/P40V/Q125Y/R42H/S133A/S149N/V209L/W38E); assay type: binding
[3] = target: DRB1*0405 complex (HLA-DR4, DRA-DRB1*0405) (Homo sapiens, UniProt P01903+P01911, A100R/A169T/D86S/F76Y/I96L/K127E/L162R/M171V/N62H/P40V/Q125Y/R42H/S133A/S149N/S66Y/V115G/V209L/W38E); assay type: binding
[4] = target: HLA-DR4 (DRA-DRB1*0405 complex) (human (endogenous in EBWa)); experiment: radioligand binding

Molecule | IC50 [2] [µM] | percent inhibition of 125I-0405BP3 binding at 20 uM [2] [%] | percent inhibition of 125I-0405BP3 binding at 20 uM [4] [%] | further results
AAYAAVAVAA | – | – | – | Solubility [1]: not soluble
K-Ins beta p1-18 (…) (peptide) | > 500 | – | – | –
AALAAIASAA | – | – | – | IC50 (DRB1*0406 complex): 8.8 µM; IC50 [3]: 11 µM
AAYAALANAA | – | – | – | IC50 (DRB1*0406 complex): 5 µM; IC50 [3]: 1.4 µM
AAFAAMASAA | – | – | – | IC50 (DRB1*0406 complex): 1.1 µM; IC50 [3]: 3.6 µM
KAAYAAVAVAA | – | – | – | IC50 (DRB1*0406 complex): 12.2 µM; IC50 [3]: 5.1 µM
B1 | – | 96 | 97 | Kd [4]: 0.07 µM
B2 | > 500 | – | – | –
B3 | – | 71 | 90 | –
B4 | – | – | – | percent by which the substitution inhibited binding (against …) [4]: 70%
B5 | – | 96 | 90 | –
B6 | 8.8 | – | – | –
B7 | – | 2 | 1 | –
B8 | 14.5 | – | – | –
B9 | 12 | – | – | –
B10 | – | 85 | 93 | –
B11 | 1.1 | – | – | –
B12 | 5 | – | – | –
B13 | 12.2 | – | – | –
B14 | – | 70 | 103 | –
B15 | 4.1 | – | – | –
B16 | > 500 | – | – | –
B17 | – | 63 | 59 | –
